In article PMC10397247 one finds interaction score data, which are given here for four molecules.

Read-outs that look alike come from different tables or passages of the source.

Assay [1] addresses T1, O9-bA.
T1 chain: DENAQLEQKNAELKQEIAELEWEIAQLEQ
The assay is described as follows: two-hybrid library CCNG1.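 Note: natural log of median RNA to DNA barcode read ratio; higher means stronger binding.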

For assay [2], the target named is T2, O8-bA.
T2 chain: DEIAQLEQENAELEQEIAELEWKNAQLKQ
As to the kind of experiment: two-hybrid library CCNG1.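 Note: natural log of median RNA to DNA barcode read ratio; higher means stronger binding.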

In assay [3] the target is T3, 4H619-bA.
T3 chain: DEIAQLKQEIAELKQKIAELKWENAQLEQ
As to the kind of experiment: two-hybrid library CCNG1.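 Note: natural log of median RNA to DNA barcode read ratio; higher means stronger binding.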

In assay [4] the target is T4, 4H584-bA.
T4 chain: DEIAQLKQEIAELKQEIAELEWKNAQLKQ
The assay is described as follows: two-hybrid library CCNG1.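 Note: natural log of median RNA to DNA barcode read ratio; higher means stronger binding.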

For assay [5], the target named is T5, 4H906-bA.
T5 chain: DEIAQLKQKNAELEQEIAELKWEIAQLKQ
As to the kind of experiment: two-hybrid library CCNG1.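 Note: natural log of median RNA to DNA barcode read ratio; higher means stronger binding.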

Assay [6] deals with T6, 4H591-bN.
T6 chain: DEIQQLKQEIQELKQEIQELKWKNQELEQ
The assay is described as follows: two-hybrid library CCNG1.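 Note: natural log of median RNA to DNA barcode read ratio; higher means stronger binding.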

Assay [7] deals with T7, 4H850-bA.
T7 chain: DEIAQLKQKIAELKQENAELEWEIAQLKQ
As to the kind of experiment: two-hybrid library CCNG1.

In assay [8] the target is T8, 4H464-AA.
T8 chain: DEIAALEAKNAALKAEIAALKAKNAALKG
As to the kind of experiment: two-hybrid library CCmax. As to conditions: mean of both orientations.

Assay [9] has as its target T9, 4H483-AA.
T9 chain: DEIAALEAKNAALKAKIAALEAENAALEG
The assay is described as follows: two-hybrid library CCmax. The following applies: mean of both orientations.

Assay [10] deals with T10, 4H446-AA.
T10 chain: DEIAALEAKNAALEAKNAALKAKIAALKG
The assay is described as follows: two-hybrid library CCmax. As to conditions: mean of both orientations.

For assay [11], the target named is T11, 4H3449-AA.
T11 chain: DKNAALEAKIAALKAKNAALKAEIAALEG
As to the kind of experiment: two-hybrid library CCmax. The following applies: mean of both orientations.

The target of assay [12] is T12, 4H63-AA.
T12 chain: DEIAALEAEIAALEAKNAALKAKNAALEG
The assay is described as follows: two-hybrid library CCmax. As to conditions: mean of both orientations.

Assay [13] has as its target T13, 4H3595-AA.
T13 chain: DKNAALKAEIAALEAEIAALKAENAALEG
The assay is described as follows: two-hybrid library CCmax. The following applies: mean of both orientations.

Assay [14] addresses T14, 4H3414-AA.
T14 chain: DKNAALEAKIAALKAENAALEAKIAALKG
As to the kind of experiment: two-hybrid library CCmax. As to conditions: mean of both orientations.

Assay [15] addresses T15, 4H3915-AA.
T15 chain: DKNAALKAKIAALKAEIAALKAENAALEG
As to the kind of experiment: two-hybrid library CCmax. As to conditions: mean of both orientations.

The target in assay [16] is T16, 4H341-AA.
T16 chain: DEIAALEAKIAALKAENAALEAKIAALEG
As to the kind of experiment: two-hybrid library CCmax. The following applies: mean of both orientations.

Assay [17] deals with T17, 4H3619-AA.
T17 chain: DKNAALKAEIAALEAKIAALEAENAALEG
The assay is described as follows: two-hybrid library CCmax. The following applies: mean of both orientations.

For assay [18], the target named is T18, 4H3094-AA.
T18 chain: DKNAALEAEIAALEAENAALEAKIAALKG
As to the kind of experiment: two-hybrid library CCmax. The following applies: mean of both orientations.

Assay [19] deals with T19, 4H380-AA.
T19 chain: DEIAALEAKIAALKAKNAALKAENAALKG
As to the kind of experiment: two-hybrid library CCmax. The following applies: mean of both orientations.

In assay [20] the target is T20, 4H2961-AA.
T20 chain: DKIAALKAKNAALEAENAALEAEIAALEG
As to the kind of experiment: two-hybrid library CCmax. The following applies: mean of both orientations.

The target in assay [21] is T21, 4H2947-AA.
T21 chain: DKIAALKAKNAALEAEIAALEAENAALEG
The assay is described as follows: two-hybrid library CCmax. As to conditions: mean of both orientations.

Assay [22] deals with T22, 4H324-AA.
T22 chain: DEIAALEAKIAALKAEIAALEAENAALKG
The assay is described as follows: two-hybrid library CCmax. The following applies: mean of both orientations.

Assay [23] addresses T23, 4H3049-AA.
T23 chain: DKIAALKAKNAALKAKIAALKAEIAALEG
The assay is described as follows: two-hybrid library CCmax. As to conditions: mean of both orientations.

The target of assay [24] is T24, 4H3974-AA.
T24 chain: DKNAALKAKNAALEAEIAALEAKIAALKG
As to the kind of experiment: two-hybrid library CCmax. As to conditions: mean of both orientations.

The target of assay [25] is T25, 4H3777-AA.
T25 chain: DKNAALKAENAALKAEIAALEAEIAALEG
The assay is described as follows: two-hybrid library CCmax. As to conditions: mean of both orientations.

The target of assay [26] is T26, 4H3969-AA.
T26 chain: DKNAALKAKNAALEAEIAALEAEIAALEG
The assay is described as follows: two-hybrid library CCmax. As to conditions: mean of both orientations.

Assay [27] deals with T27, 4H3129-AA.
T27 chain: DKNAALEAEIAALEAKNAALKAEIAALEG
As to the kind of experiment: two-hybrid library CCmax. As to conditions: mean of both orientations.

Assay [28] has as its target T28, 4H2903-AA.
T28 chain: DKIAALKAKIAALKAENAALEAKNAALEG
The assay is described as follows: two-hybrid library CCmax.

The target of assay [29] is T29, 4H432-AA.
T29 chain: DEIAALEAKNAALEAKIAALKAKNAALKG
The assay is described as follows: two-hybrid library CCmax. The following applies: mean of both orientations.

Assay [30] concerns the target T30, 4H3939-AA.
T30 chain: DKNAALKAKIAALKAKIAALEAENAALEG
As to the kind of experiment: two-hybrid library CCmax. As to conditions: mean of both orientations.

The target in assay [31] is T31, 4H3629-AA.
T31 chain: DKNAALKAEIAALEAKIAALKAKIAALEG
As to the kind of experiment: two-hybrid library CCmax. As to conditions: mean of both orientations.

In assay [32] the target is T32, 4H3782-AA.
T32 chain: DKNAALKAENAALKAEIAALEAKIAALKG
As to the kind of experiment: two-hybrid library CCmax. The following applies: mean of both orientations.

B1: O9-bA (peptide)
chain: DENAQLEQKNAELKQEIAELEWEIAQLEQ
B1: in [1] (mean of both orientations), the interaction score is -0.959.

B2: O8-bA (peptide)
chain: DEIAQLEQENAELEQEIAELEWKNAQLKQ
On to B2, for which the interaction score in assay [2] was -0.832; in assay [1], 0.317.

B3: 4H584-bA (peptide)
chain: DEIAQLKQEIAELKQEIAELEWKNAQLKQ
For the molecule B3, the interaction score in [3] was 1.1; in assay [4], 0.598; in [5], -0.288; in assay [6] it was -0.664; in assay [7], 0.521.

B4: 4H2903-AA (peptide)
chain: DKIAALKAKIAALKAENAALEAKNAALEG
In the case of B4, the interaction score was -1.44 in assay [8]; -1.33 in [9]; -0.722 in assay [10]; -1.8 in assay [11]; 2.45 in assay [12]; -0.655 in [13]. The interaction score in assay [14] is -1.72; in assay [15], -1.48; in [16], -0.593; in assay [17], -0.237; in [18] it was -0.448; in assay [19], 0.283. Moreover, the interaction score was -1.88 in [20]; -1.62 in assay [21]; -0.202 in assay [22]; -1.81 in [23]; -0.747 in assay [24]; -1.22 in [25]. The interaction score in [26] is -0.566; in assay [27], -0.64; in assay [28], -1.28; in [29], -1.38; in [30], -1.78; in [31] it was -0.902. Also, the interaction score in assay [32] is -1.31.
